Source: the supplement of paper PMC9170038

What was measured:
MS2 coat protein [1] = experiment: apparent KD of MS2 coat protein, switch OFF state (with FMN for OFF switches, without FMN for ON switches); designed switch direction (-1 OFF switch, 1 ON switch): -1; higher = weaker reporter binding; settings: FMN input: 0 or 200 uM; Eterna round: R93 (includes R88 designs)
Outline: (§1)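 Apparent KD stands for the median, per design, of fits to normalised cluster binding curves. The curves came from titrating on-chip-transcribed RNA switches on Illumina sequencing clusters with SNAP-549-labelled MS2 coat protein, twofold from 0.7 or 1.5 nM to 3 µM. Buffer was 100 mM Tris-HCl pH 7.5, 80 mM KCl, 4 mM MgCl2, without or with constant ligand.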

MS2 coat protein [2] = experiment: apparent KD of MS2 coat protein, switch ON state; designed switch direction (-1 OFF switch, 1 ON switch): -1; higher = weaker reporter binding; settings: FMN input: 0 or 200 uM; Eterna round: R93 (includes R88 designs)
Outline: as §1

Row | Sequence | apparent KD of MS2 coat protein (MS2 coat protein [1]) [nM] | apparent KD of MS2 coat protein (MS2 coat protein [2]) [nM]
1 | AACAGUACAGGAUAUACAUGAGGAUCACCCAUGUAAAAAUAAAAGGGCGUACCACAAAGUAGAAGGGUACUGGA [Moding Maslow revisited (73) 12] | 34 | 44.7
2 | AUGGUACAUGAGGAUCACCCAUGUCAGGAUAUCGGCUAAAACGUAAAAAAAAUAAAAGCGAGAAGGGACUGCUC [EX1 Malc#18 Mod 8 - Jieux - Exclusion 1] | 28.3 | 24
3 | CUCAUGUUAGGAUAUAAAUGAAAUGAAGUGAAAGAAAAGAAUUAGAAGGAACAUGAGGAUCACCCAUGUUAGAA [EteRNA is fun!] | 37.6 | 47.8
4 | AAAAAGGGAGGAUAUACAUGAGUAGAUCGUGUAAAAAAAAUACAUGAGGAUCACCCAUGUAGAAGGCCCAAAAA [Ecxl-III] | 31.5 | 96.8
5 | AAGAACCGAGGAUAUACAUGAGGAUCACCCAUGUAAAAGAAAGAGGGAAAAGAGAAAAGUAGAAGGCGGAAGAA [Berenice I] | 57.4 | 26.2
6 | AACAAACAUGAGGAUCACCCAUGUCAGGAUAUGCAUAAAUAAAUAAAUAAAUAAAUAAGCAGAAGGGACACAAC [Amethyst 90] | 53.3 | 45.1
7 | AAGAAUGGAGGAUAUACAAAAUAAAAGAAAAGAAAGAAAGAACAUGAGGAUCACCCAUGUAGAAGGCCAAAGAA [Khasekhemre Neferhotep I] | 24.7 | 33.6
8 | CAGAGACAUGAGGAUCACCCAUGUUAGGAUAUGCGUGUAUGCUAAAAAAAGUUAACAAGCAGAAGGAACAGAGG [JR_Exc001_Sub309] | 64.2 | 24.3
9 | AAAAAGUGAGGAUAUUCGGAUAGGAAAACGAAAACCUAUCCGAAGAAGGCACAUGAGGAUCACCCAUGUGAAAG [Mat - Exaclusion 4 - Eli mod - D42] | 29.4 | 28
10 | AAUAUGUCAGGAUAUGUGUAAAGAAUAAAAGAAAUAACAACACAGAAGGGACAUGAGGAUCACCCAUGUCAACA [May 33] | 18 | 24.8
11 | AAAAAGGCAGGAUAUACGUACAUGUCAAAAGACGUGAAGGGACAUGAGGAUCACCCAUGUAGAAGGGUCAAGAA [JL Stem Breaker 19] | 61.9 | 128
12 | AAAAAACAUGAGGAUCACCCAUGUAAGGAUAUGUAAAAUAAAAGAAAAAUAAAGAAAAGCAGAAGGUAUAUGAA [JL wbt mod 13] | 40.7 | 27.6
13 | AACAGAACAGGAUAUACAUGAGGAUCACCCAUGUCACAACAAAGCAGCGCAACACAAAGUAGAAGGGUUAUGGA [Ruby 14] | 40.9 | 31.8
14 | GAGAGCCGAGGAUAUACAUGAGGAUCACCCAUGUAAAAAAAAAAAAAAAAAAAAUCAUGUAGAAGGCGGCUUUC [hsl_exclusion3] | 28.9 | 234
15 | AACAGGUCAGGAUAUGUGGAAAAAAUAAAAAAAAUAAAAACACAGAAGGGACAUGAGGAUCACCCAUGUAUAUA [May 21] | 53.4 | 89.4
16 | AACAGUACAGGAUAUACAUGAGGAUCACCCAUGUGAGAAUUAAGUGGCGUACCACAAAGUAGAAGGGUACUGGA [JL Maslow Revisted mod 16] | 173 | 35
17 | AAAAACCGAGGAUAUACAUGAGGAUCACCCAUGUGAAAAAAAAAAAAGAGGAAAAGAUGUAGAAGGCGGAAAAA [65%, Moding Exclusion3-cac2, 17] | 44.1 | 33.9
18 | AGCAAACAUGAGGAUCACCCAUGUGAGGAUAUGAACGAAAAUAAAUAAAAAUAAAAGUUCAGAAGGCACGAGCA [66%, Wbt, 26] | 35.6 | 30.4
19 | AAAAAUUGAGGAUAUACGAACAUGUCAAAAGACGUGAAGGGACAUGAGGAUCACCCAUGUAGAAGGCGAAAGAA [JL Loop Breaker 1] | 19.9 | 45.1
20 | AAAGGGCGAGGAUAUACAUGAGGAUCACCCAUGUAAAAAACAUAAUAAAAGAACUUAUGUAGAAGGCGUCCAAA [Meechl Ex3 2 R2 v2] | 321 | 52.8
21 | AGUUGGCGAGGAUAUACAUGAGGAUCACCCAUGUAAAAUAAAUAAAAAGGGAAAAAGAGUAGAAGGCGCUGACA [73%, Moding Norbert Elias, 8] | 192 | 42.6
22 | GGAUGUCAAGGAUAUACAUGAGGAUCACCCAUGUGAGAGAAAAAAGUGAGAAAGAAAAGUAGAAGGUGGUGUCG [salish99-ex3-87] | 56.1 | 38.5
23 | AAAAAGACAGGAUAUACGUGAAAAAUAAAAAUGUAAAAAAAACAUGAGGAUCACCCAUGUAGAAGGGUCAAAAA [Ecx-I 62% 3] | 61.8 | 59.3

Row | Sequence | apparent KD of MS2 coat protein (MS2 coat protein [1]) [nM] | apparent KD of MS2 coat protein (MS2 coat protein [2]) [nM]
24 | AAGAAGUCAGGAUAUGCUGCUCGUCACUUGCGUGAUGAGUAGCAGAAGGGACAUGAGGAUCACCCAUGUAAAGA [Exclusion4-cac2] | 65.6 | 50.7
25 | AACUGACAUGAGGAUCACCCAUGUCAGGAUAUGCUUAAUAAAAAAAAAAAAAAAUGAUGCAGAAGGGAUAUGGG [Amethyst 56] | 18.9 | 23.7
26 | GUGUACAGAGGAUAUACUAAAGCAUGGAAACAUGCAAGAUCACAUGAGGAUCACCCAUGUAGAAGGCUGUACAC [Ex2: 741] | 529 | 62.3
27 | AAAAAACAUGAGGAUCACCCAUGUAAGGAUAUGCUGAAAAAAACCUGGAAAACAGGCAGCAGAAGGUACAAAAA [66%, Wbt, 36] | 35.6 | 23.9
28 | GAGAAGUUAGGAUAUGCGGAGGGAAGGAAGGAAAGGGAAGGGCAGAAGGAACAUGAGGAUCACCCAUGUAAGAG [salish99-ex4-02] | 25.3 | 35.9
29 | AACAUGUCAGGAUAUAAAAGAAAAGAAAAGAAAGAAAAGAAUUAGAAGGGACAUGAGGAUCACCCAUGUAAGAA [EteRNA is fun!] | 28.9 | 33
30 | AAAGGACAUGAGGAUCACCCAUGUGAGGAUAUCGGAAAAGGAAAAAUAAAAAAGAAGACGAGAAGGCACACCAA [Mat - Exclusion 1 - Eli mod - D76] | 59.8 | 80.6
31 | AAAAAACAUGAGGAUCACCCAUGUAAGGAUAUGCAAGCAAGAAGAAAGAACAGAAAAAGCAGAAGGUACAAAAA [Amethyst 72] | 35.9 | 25.3
32 | CCGAGGCGAGGAUAUAUGAAGGACACAACAUUUAGGGUAAGACAUGAGGAUCACCCAUGUAGAAGGCGCGACGC [Ex2_Neo] | 38.7 | 74.5
33 | AAAAAGGUAGGAUAUGCUAAAUAACAUGAAGAAUAAAUAAAACAUGAGGAUCACCCAUGUAGAAGGACCAAAAA [Ex 2 Tesla 1] | 20 | 25
34 | AGGAUGUCAGGAUAUGUGUAAAGAAUAAAAGAAAUAACAACACAGAAGGGACAUGAGGAUCACCCAUGUUAAAA [May 35] | 44.3 | 48.8
35 | AAAAAGGUAGGAUAUACGAAAAAAAAGGGUAGAAAAAUAAAACAUGAGGAUCACCCAUGUAGAAGGACCAAAAA [Ex 2 sub 1 70% 1] | 86.5 | 25.8
36 | AACAUGUAAGGAUAUUGAAGAAAAGAAAAGAAAGAAAAGAACAAGAAGGUACAUGAGGAUCACCCAUGUAAGAA [EteRNA is fun!] | 18.6 | 33.7
37 | AAAAAACAUGAGGAUCACCCAUGUCAGGAUAUCGAAAGAAAAAAAAAGAAAAAAAAAACGAGAAGGGACAAAAA [Amethyst 28] | 30.3 | 56.1
38 | AAGGGACAUGAGGAUCACCCAUGUUAGGAUAUGCUAUGGAAAAUAAAAUAAAAACAUAGCAGAAGGAACAAAAA [Mat - Exclusion 1 - Eli mod - D36] | 60.5 | 43.2
39 | AACAGUACAGGAUAUACAUGAGGAUCACCCAUGUCAGAAUUAAGCAGCGUAACACAAAGUAGAAGGGUAAUGGA [Ruby 18] | 41.1 | 46
40 | AAAAAGUGAGGAUAUGUCAAAGGUCACGAAAGUGACAAAGGACAGAAGGCACAUGAGGAUCACCCAUGUGGGAA [Fiskers Exclusion 4D1 65% - Early + late G segment 1] | 77.6 | 67.4
41 | AAAAAACAUGAGGAUCACCCAUGUGAGGAUAUCGAAAAGUCAAAGAAAAAGACGAAAACGAGAAGGCACAAAAA [Mat - Mod of Eli 2] | 43.6 | 28.1
42 | ACUAAUGAAGGAUAUACAAACAAAAAAAAAACAAAAAAAAAACAUGAGGAUCACCCAUGUAGAAGGUCAAAAAU [JR_Exc002_Sub1201] | 20 | 22
43 | AGCUAGUCAGGAUAUACGAACAGGUCAAAAGACUUGAAGGGACAUGAGGAUCACCCAUGUAGAAGGGACUAGCA [Mat - Exclusion 2 - JL mod - D25] | 128 | 32.2
44 | AAAAAACAUGAGGAUCACCCAUGUCAGGAUAUCCGGUUCUUGAAAAAAAAGAGGCGUUGGAGAAGGGACAUUCC [Chica Displaced 13 - Jieux - Exclusion 1] | 38.7 | 25
45 | AAAAGACAUGAGGAUCACCCAUGUGAGGAUAUGCAAAACCCAUAUAAAAAGGGAAAAAGCAGAAGGUACAAAAA [wbt round 1 mod 13] | 40.5 | 29.6
